# Data from PMC10681732.
# T1: RIG-I CTD WT (crystal) (human, UniProt O95786 802-925)
# T1 sequence: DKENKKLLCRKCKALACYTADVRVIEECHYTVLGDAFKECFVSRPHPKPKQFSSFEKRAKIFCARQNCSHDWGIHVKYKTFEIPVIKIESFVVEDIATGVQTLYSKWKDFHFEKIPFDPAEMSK
# T2: RIG-I CTD I875A (crystal) (human, UniProt O95786 802-925, I875A)
# T2 sequence: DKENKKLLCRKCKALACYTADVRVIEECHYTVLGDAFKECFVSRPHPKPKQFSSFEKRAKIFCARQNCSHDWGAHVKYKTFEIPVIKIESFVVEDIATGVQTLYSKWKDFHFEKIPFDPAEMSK
# B1: OH-dsRNA (crystallization) (dsRNA)
# RNA 1: GACGCUAGCGUC
# RNA 2: GACGCUAGCGUC
# B2: p-dsRNA (crystallization) (dsRNA)
# RNA 1: GACGCUAGCGUC
# RNA 2: GACGCUAGCGUC
# modifications: 5'-monophosphate
# Legend:
# RIG-I CTD WT (crystal) = molecular target: T1, RIG-I CTD WT (crystal); experiment: X-ray crystallography
# [1] = molecular target: T2, RIG-I CTD I875A (crystal); experiment: X-ray crystallography
binder,measurement,setting,value
B1,binding result,RIG-I CTD WT (crystal),binds
B2,binding result,[1],binds
